One molecule from US20250049939A1 (TUBULIS, published 2025) can be followed below.

Assay [1] addresses T1, CSF1R on Ba/F3 cells (UniProt P07333 20-972, limits assumed).
T1 construct: whole, on cells
As to the kind of experiment: flow cytometry, cell surface binding to Ba/F3 pMIY cells expressing CSF-1R, MFI ratio normalized to IgG1, mean ± s.d. of n=3.

In assay [2] the target is T2, VEGFR-2 on Ba/F3 cells (UniProt P35968 20-1356, limits assumed).
T2 construct: whole, on cells
As to the kind of experiment: flow cytometry, cell surface binding to Ba/F3 pMIY cells expressing VEGFR, MFI ratio normalized to IgG1, mean ± s.d. of n=3.

Assay [3] concerns the target T3, c-KIT on Ba/F3 cells (UniProt P10721 26-976, limits assumed).
T3 construct: whole, on cells
Kind of assay: flow cytometry, cell surface binding to Ba/F3 pMIY cells expressing c-KIT, MFI ratio normalized to IgG1, mean ± s.d. of n=3.

In assay [4] the target is CD16 (Fc gamma receptor) on Ba/F3 cells (human, UniProt P08637 17-254). Kind of assay: flow cytometry, cell surface binding to Ba/F3-pMIY cells expressing CD16, specific MFI, mean ± s.d. of n=3. For orientation: Flow cytometry measures light scatter and fluorescence of single cells or particles in a stream.
CD16 (Fc gamma receptor) on Ba/F3 cells, sequence (P08637 17-254 limits assumed): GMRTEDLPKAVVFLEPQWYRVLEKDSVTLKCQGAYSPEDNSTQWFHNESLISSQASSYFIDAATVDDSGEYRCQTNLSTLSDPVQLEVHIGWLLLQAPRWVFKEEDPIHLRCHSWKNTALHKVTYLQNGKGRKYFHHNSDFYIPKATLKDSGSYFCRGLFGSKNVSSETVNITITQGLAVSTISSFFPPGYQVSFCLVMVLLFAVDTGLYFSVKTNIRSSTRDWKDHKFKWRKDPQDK
Assay [5] addresses T4, human CD64 (high affinity Fc receptor, FCGR1) on cells (human, UniProt P12314 16-374).
T4 construct: whole, on cells; also called hCD64; human FCGR1
As to the kind of experiment: flow cytometry, cell surface binding to Ba/F3-pMIY cells expressing CD64, specific MFI, mean ± s.d. of n=3.

For assay [6], the target named is T5, PDGFRα on Ba/F3 cells (UniProt P16234 24-1089, limits assumed).
T5 construct: whole, on cells
T5 sequence (P16234 24-1089 limits assumed): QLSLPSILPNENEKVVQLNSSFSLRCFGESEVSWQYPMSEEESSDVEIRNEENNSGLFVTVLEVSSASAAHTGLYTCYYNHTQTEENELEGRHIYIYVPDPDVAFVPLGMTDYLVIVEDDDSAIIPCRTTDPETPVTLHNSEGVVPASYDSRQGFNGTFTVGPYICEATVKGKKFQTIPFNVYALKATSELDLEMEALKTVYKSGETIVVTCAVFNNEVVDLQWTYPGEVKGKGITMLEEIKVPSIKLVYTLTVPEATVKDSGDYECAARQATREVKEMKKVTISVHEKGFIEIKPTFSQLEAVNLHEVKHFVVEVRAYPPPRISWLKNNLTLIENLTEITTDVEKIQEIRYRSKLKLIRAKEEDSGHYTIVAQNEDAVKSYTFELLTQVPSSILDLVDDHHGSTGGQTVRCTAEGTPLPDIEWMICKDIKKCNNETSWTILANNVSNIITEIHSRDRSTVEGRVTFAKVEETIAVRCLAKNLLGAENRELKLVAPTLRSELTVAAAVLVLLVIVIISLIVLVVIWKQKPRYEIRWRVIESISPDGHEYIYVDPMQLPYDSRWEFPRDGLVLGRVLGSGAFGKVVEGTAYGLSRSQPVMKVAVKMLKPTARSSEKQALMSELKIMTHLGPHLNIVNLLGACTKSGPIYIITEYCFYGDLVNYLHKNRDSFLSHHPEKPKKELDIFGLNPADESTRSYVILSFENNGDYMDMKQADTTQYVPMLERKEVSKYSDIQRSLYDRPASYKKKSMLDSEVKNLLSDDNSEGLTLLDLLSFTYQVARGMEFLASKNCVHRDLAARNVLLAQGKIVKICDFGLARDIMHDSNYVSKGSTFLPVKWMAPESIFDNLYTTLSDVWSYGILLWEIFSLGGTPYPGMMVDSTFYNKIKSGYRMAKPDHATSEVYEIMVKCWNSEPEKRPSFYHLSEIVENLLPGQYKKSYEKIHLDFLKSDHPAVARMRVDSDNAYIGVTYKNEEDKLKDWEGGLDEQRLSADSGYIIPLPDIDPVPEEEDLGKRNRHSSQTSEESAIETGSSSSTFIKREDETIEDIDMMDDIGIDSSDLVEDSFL
As to the kind of experiment: flow cytometry, cell surface binding to Ba/F3 pMIY cells expressing PDGFRα, MFI ratio normalized to IgG1, mean ± s.d. of n=3.

T3 sequence (P10721 26-976 limits assumed): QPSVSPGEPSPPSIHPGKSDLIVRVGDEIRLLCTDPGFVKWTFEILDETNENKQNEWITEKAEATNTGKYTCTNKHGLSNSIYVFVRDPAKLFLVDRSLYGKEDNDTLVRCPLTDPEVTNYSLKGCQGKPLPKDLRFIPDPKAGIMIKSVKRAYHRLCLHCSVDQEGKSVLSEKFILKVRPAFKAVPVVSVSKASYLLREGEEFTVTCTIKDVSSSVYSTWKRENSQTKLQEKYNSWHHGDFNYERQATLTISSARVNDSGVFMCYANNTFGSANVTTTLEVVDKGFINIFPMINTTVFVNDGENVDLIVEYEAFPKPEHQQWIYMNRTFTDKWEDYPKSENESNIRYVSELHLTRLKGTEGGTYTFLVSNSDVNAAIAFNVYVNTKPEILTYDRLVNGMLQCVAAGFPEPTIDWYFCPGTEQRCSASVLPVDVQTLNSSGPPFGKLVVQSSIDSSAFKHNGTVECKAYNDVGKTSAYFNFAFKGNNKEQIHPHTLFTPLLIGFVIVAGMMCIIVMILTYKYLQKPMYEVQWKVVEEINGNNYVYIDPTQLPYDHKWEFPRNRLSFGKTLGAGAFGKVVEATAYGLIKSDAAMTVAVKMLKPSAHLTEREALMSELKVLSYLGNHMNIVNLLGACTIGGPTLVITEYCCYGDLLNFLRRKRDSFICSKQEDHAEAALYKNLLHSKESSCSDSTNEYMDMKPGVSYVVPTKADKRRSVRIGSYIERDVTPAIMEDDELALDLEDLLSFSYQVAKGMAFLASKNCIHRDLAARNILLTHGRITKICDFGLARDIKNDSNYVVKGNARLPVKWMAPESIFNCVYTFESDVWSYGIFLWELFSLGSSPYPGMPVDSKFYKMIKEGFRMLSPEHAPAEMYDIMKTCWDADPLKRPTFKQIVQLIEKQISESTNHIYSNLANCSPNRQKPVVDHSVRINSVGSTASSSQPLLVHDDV
T4 sequence (P12314 16-374): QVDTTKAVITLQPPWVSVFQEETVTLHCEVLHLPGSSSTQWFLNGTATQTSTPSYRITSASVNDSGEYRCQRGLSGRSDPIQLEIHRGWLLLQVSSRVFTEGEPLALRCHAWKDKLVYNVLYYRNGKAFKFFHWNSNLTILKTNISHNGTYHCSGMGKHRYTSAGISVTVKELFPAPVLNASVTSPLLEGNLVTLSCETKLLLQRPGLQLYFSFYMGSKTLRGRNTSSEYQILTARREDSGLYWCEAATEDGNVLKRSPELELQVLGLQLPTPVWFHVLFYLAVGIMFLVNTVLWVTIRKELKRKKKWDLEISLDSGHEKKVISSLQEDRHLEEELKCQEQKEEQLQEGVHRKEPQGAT
T1 sequence (P07333 20-972 limits assumed): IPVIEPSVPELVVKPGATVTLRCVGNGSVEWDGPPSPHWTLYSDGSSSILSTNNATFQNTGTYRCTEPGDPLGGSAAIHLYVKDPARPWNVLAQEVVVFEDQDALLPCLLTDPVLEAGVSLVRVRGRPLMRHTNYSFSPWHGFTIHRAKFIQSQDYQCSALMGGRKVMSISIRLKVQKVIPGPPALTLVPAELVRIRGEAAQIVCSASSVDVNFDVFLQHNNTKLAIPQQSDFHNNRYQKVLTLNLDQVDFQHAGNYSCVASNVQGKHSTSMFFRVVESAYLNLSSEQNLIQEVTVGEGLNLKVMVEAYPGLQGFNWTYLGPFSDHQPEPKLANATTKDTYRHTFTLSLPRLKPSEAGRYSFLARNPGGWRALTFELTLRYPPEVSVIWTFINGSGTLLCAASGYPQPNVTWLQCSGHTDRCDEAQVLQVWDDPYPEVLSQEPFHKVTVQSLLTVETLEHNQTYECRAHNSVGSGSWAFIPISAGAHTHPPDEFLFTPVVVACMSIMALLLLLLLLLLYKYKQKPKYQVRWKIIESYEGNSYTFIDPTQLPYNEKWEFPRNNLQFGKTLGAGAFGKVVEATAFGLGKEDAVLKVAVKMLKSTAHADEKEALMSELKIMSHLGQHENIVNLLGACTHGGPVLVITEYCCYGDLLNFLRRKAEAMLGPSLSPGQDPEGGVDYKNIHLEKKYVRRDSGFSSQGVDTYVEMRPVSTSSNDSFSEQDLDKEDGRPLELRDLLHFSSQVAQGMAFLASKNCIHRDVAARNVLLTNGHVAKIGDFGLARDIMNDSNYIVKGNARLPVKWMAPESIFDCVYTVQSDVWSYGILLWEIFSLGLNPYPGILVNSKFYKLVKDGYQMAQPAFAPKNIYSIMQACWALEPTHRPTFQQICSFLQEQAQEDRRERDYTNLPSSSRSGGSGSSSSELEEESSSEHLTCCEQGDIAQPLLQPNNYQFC
T2 sequence (P35968 20-1356 limits assumed): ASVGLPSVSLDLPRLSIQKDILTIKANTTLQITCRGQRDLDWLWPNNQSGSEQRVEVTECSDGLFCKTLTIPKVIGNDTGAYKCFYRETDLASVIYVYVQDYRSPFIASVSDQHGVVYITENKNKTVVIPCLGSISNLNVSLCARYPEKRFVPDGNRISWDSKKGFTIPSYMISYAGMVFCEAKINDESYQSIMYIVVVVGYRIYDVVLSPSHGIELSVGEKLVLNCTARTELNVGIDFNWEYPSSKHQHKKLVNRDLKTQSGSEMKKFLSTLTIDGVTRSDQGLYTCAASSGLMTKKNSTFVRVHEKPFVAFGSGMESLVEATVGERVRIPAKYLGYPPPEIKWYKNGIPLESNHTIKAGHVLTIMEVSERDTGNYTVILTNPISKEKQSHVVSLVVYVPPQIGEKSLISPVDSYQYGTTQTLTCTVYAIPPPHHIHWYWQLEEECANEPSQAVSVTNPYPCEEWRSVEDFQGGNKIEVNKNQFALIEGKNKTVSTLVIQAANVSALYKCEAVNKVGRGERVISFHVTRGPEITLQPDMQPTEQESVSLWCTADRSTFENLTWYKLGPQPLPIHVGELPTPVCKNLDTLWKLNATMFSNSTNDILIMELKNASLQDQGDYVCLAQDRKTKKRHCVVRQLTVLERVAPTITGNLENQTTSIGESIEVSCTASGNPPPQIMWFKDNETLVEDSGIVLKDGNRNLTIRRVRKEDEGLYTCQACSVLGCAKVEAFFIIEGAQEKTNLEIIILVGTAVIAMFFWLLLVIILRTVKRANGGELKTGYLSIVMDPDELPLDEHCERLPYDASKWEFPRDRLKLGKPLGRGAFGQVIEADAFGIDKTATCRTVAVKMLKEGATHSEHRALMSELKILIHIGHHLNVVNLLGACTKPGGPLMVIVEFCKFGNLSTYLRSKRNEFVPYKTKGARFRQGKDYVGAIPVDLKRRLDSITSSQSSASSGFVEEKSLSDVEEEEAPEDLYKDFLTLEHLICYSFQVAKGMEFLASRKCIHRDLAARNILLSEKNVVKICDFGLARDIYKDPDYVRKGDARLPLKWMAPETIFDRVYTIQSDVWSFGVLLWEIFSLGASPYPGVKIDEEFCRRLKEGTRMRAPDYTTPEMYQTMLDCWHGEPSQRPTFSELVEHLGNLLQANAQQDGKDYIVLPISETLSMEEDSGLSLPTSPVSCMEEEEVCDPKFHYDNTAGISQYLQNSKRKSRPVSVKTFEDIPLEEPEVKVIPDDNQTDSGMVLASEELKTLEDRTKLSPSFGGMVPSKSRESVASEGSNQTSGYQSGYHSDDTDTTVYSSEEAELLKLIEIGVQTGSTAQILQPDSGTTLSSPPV

B1: Humanized clone 13 of 20D9 (VH3 + VK1; HC-LALA, same as Clone #3 but with LALA mutation in HC constant region) (antibody, human IgG1, kappa, L234A L235A)
heavy: not shown
light: DIQMTQSPSVLSASVGDRVTINCRASQNINKELNWYQQKLGEAPKLLIYNTNNLQSGVPSRFSGSGSGTDYTLTISSLQPEDVATYFCFQHKSWPLTFGSGTKLEIKRTVAAPSVFIFPPSDEQLKSGTASVVCLLNNFYPREAKVQWKVDNALQSGNSQESVTEQDSKDSTYSLSSTLTLSKADYEKHKVYACEVTHQGLSSPVTKSFNRGEC
notes: also called #3-LALA; #3-LALA mab
B1: the binding result in assay [1] is listed as “no binding”; in assay [2], “no binding”; in assay [3], “no binding”; in assay [4] it was “no binding”; in assay [5] it was “binds”; in assay [6], “no binding”.
